Data on seven molecules can be found in paper PMC7185714, “Structure and conformational cycle of a bacteriophage-encoded chaperonin” (PLoS ONE, 2020).

As a reminder, the stoichiometry N is the number of molecules, sites or subunits per partner or assembly. The Km is the concentration of substrate that gives half-maximal velocity. Usually kcat stands for the number of substrate molecules converted per active site and unit of time at saturation.

Data set [1] deals with T1, ɸEL (gp146) (Pseudomonas phage EL, UniProt Q2Z0T5).
T1 construct: tetradecameric double ring (~863 kDa) or single-ring heptamer (~431 kDa, with ATP and in the crystals)
T1 sequence (Q2Z0T5 1-558): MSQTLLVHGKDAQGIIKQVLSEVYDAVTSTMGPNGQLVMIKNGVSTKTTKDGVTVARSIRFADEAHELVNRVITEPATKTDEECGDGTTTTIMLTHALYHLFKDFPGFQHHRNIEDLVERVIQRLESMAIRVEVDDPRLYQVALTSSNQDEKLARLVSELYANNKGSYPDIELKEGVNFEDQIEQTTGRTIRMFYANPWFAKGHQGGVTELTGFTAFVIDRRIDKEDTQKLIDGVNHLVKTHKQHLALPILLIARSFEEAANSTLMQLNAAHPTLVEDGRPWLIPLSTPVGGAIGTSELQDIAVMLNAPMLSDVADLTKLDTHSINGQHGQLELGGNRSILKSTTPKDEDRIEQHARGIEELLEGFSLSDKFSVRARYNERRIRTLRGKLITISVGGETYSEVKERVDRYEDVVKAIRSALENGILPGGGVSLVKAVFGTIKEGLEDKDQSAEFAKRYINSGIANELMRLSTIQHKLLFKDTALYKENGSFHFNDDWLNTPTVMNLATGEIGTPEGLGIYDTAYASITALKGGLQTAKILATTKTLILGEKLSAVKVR
Kind of data set: X-ray crystal structure ([…] Å, crystal form I). Type of data set: binding. Particulars: ATP added with BeSO4/NaF; ATP and ADP-BeFx not distinguishable, modelled as ATP with Mg2+; single-ring heptamer, equatorial domain site; also in form II (6TMU, 3.54 Å; chains A, C, E, G).

The next data set deals with T2, GroEL (Escherichia coli, UniProt P0A6F5).
T2 construct: purified GroEL tetradecamer; source and preparation not described
T2 sequence (P0A6F5 2-548): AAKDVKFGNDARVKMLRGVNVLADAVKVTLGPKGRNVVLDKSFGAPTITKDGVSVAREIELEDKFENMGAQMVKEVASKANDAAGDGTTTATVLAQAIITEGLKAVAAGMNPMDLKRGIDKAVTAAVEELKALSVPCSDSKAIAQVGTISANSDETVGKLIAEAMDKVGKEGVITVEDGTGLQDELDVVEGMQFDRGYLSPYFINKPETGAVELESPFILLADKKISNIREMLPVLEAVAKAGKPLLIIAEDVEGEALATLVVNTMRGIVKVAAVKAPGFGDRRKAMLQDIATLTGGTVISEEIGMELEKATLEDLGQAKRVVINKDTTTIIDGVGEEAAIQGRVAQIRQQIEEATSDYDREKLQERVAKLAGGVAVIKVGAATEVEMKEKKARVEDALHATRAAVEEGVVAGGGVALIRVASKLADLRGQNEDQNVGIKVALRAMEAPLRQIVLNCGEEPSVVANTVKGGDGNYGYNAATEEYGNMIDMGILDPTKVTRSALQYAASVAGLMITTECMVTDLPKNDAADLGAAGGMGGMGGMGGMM
Kind of data set: NADH-coupled ATPase assay. Format: biochemical. To be noted: 1 mM ATP, 50 mM Tris-HCl pH 7.5, 10 or 100 mM KCl, 10 mM MgCl2, 25°C; without GroES; rates only in figure.

Data set [2] has as its target T3, GroEL from E. coli (E. coli, UniProt P0A6F5 1-548).
Data set [3] has as its target chaperonin gp146 (ɸEL) from the phage EL of Pseudomonas aeruginosa (Pseudomonas bacteriophage EL).
The target of data set [4] is T1, ɸEL (gp146). In words: cryo-EM structure ([…] Å). Type of data set: binding. Particulars: double ring, D7, pH 7.5, Mg2+; pseudo-atomic model; ADP also modelled in crystal form II (6TMU, chains B, D, F, partial occupancy).
In data set [5] the target is chaperonin gp146 (ɸEL) from the phage EL of Pseudomonas aeruginosa (Pseudomonas bacteriophage EL). Kind of data set: cryo-EM structure; ɸEL with ADP, single particle analysis, D7 symmetry, 5.9 Å.
Data set [6] has the same target. Kind of data set: cryo-EM structure; ɸEL with ATPγS, single particle analysis, D7 symmetry, 5.8 Å.
The target is the same in data set [7]. In words: cryo-EM structure; apo-ɸEL, no nucleotide, single particle analysis, C2 symmetry, 3.45 Å.
For data set [8] the target is unchanged. Kind of data set: SEC-MALS; ɸEL at 2 g/L, with 2 mM ATP, 20 mM HEPES-NaOH pH 7.5, 50 mM KCl, 4 mM Mg acetate, 25°C. In general terms: In gel filtration, larger molecules generally elute earlier.
Data set [9] shares this target. In words: SEC-MALS; ɸEL at 2 g/L, with 2 mM ATP, 20 mM HEPES-NaOH pH 7.5, 100 mM KCl, 2 mM Mg acetate, 25°C.
The target is the same in data set [10]. In words: crystal structure; ɸEL crystallised with 2 mM ATP, 5 mM BeSO4 and 20 mM NaF; crystal forms I (4.03 Å) and II (3.54 Å).
Data set [11] has the same target. In words: SEC-MALS; ɸEL at 2 g/L, no nucleotide, 20 mM HEPES-NaOH pH 7.5, 100 mM KCl, 2 mM Mg acetate (also run at 50 mM KCl), 25°C.
Data set [12] shares this target. Kind of data set: SEC-MALS; ɸEL at 2 g/L, with 2 mM ADP, 20 mM HEPES-NaOH pH 7.5, 100 mM KCl, 2 mM Mg acetate (also run at 50 mM KCl), 25°C.
Data set [13] concerns the target T1, ɸEL (gp146). Kind of data set: cryo-EM structure ([…] Å). Type of data set: binding. To be noted: double ring, D7, pH 7.5, Mg2+; slowly hydrolysed ATP analogue; pseudo-atomic model.
Substrate in data set [14]: Nc1ncnc2c1ncn2[C@@H]1O[C@H](COP(=O)(O)OP(=O)(O)OP(=O)(O)O)[C@@H](O)[C@H]1O
In words: NADH-coupled ATPase assay (pyruvate kinase/lactate dehydrogenase), Hill fit. Format: biochemical, Pseudomonas phage EL. To be noted: high salt: 50 mM Tris-HCl pH 7.5, 100 mM KCl, 10 mM MgCl2, 25°C, Hill coefficient fitted.

In data set [15] the target is T3, GroEL from E. coli. Kind of data set: cell-based or functional assay.

T3 sequence (P0A6F5 whole entry): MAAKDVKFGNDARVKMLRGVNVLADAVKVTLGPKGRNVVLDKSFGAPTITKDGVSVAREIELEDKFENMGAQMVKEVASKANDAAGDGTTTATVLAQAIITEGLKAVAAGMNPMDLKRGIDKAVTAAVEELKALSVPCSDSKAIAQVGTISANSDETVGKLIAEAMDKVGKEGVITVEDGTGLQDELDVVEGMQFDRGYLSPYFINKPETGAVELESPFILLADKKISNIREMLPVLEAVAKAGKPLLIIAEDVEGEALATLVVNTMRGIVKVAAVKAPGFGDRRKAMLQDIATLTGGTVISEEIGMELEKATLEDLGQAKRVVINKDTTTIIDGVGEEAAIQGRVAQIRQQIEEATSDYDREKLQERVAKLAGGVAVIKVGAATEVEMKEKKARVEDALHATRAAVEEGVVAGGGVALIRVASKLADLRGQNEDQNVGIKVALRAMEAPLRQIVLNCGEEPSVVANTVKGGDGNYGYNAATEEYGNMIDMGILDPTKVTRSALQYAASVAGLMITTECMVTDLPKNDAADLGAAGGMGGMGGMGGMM

As for `Nc1ncnc2c1ncn2[C@@H]1O[C@H](COP(=O)(O)OP(=O)(O)OP(=O)(O)O)[C@@H](O)[C@H]1O` [ATP], the “X-ray crystal structure (4.03 Å, crystal form I)” value on ɸEL (gp146) [1] is on record as “All subunits as judged from the electron density had either ATP or ADP•BeFX bound”. The “NADH-coupled ATPase assay” value on GroEL was “ATPase activity of GroEL and ɸEL in presence and absence of a two-fold excess”.
As to “double mutant of maltose binding protein (DM-MBP), denatured (from UniProt P0AEX9 27-396) (natural protein)”, the GroEL ATPase activity with denatured DM-MBP, at 10 and 100 mM KCl, 1 mM ATP with GroEL from E. coli [2] stood at 2 fold. This molecule also gave a decrease in ɸEL ATPase activity with denatured DM-MBP, at 10 mM KCl, 1 mM ATP in data set [3] of 60%.
Regarding `Nc1ncnc2c1ncn2[C@@H]1O[C@H](COP(=O)(O)OP(=O)(O)O)[C@@H](O)[C@H]1O` [ADP], at ɸEL (gp146) [4], the “cryo-EM structure (5.9 Å)” value is on record as “we determined the solution structure of ɸEL in the presence of ADP by single-particle cryo-EM”.
With “chaperonin gp146 (ɸEL) from the phage EL of Pseudomonas aeruginosa (natural protein)”, the stoichiometry N was found to be 14 in [5]; 14 in [6]; 14 in [7]; 14 in data set [8]; 7 in data set [9]; 7 in [10]. The stoichiometry N in [11] and in data set [12] was 14 each time.
As for `Nc1ncnc2c1ncn2[C@@H]1O[C@H](COP(=O)(O)OP(=O)(O)OP(O)(O)=S)[C@@H](O)[C@H]1O` [ATPγS], at ɸEL (gp146) [13], the “cryo-EM structure (5.8 Å)” value is “we also determined the cryo-EM structure of ɸEL in the presence of the slowly hydrolyzing”.

B1: ɸEL (gp146) (Pseudomonas phage EL) (protein)
chain: MSQTLLVHGKDAQGIIKQVLSEVYDAVTSTMGPNGQLVMIKNGVSTKTTKDGVTVARSIRFADEAHELVNRVITEPATKTDEECGDGTTTTIMLTHALYHLFKDFPGFQHHRNIEDLVERVIQRLESMAIRVEVDDPRLYQVALTSSNQDEKLARLVSELYANNKGSYPDIELKEGVNFEDQIEQTTGRTIRMFYANPWFAKGHQGGVTELTGFTAFVIDRRIDKEDTQKLIDGVNHLVKTHKQHLALPILLIARSFEEAANSTLMQLNAAHPTLVEDGRPWLIPLSTPVGGAIGTSELQDIAVMLNAPMLSDVADLTKLDTHSINGQHGQLELGGNRSILKSTTPKDEDRIEQHARGIEELLEGFSLSDKFSVRARYNERRIRTLRGKLITISVGGETYSEVKERVDRYEDVVKAIRSALENGILPGGGVSLVKAVFGTIKEGLEDKDQSAEFAKRYINSGIANELMRLSTIQHKLLFKDTALYKENGSFHFNDDWLNTPTVMNLATGEIGTPEGLGIYDTAYASITALKGGLQTAKILATTKTLILGEKLSAVKVR
notes: tetradecameric double ring (~863 kDa) or single-ring heptamer (~431 kDa, with ATP and in the crystals)
Consider B1, for which, in data set [14], the Km amounted to 72 ± 8 µM and the kcat is 9.6 ± 0.12 s⁻¹ (per tetradecamer).

B2: E. coli GroES (natural protein)
chain: MNIRPLHDRVIVKRKEVETKSAGGIVLTGSAAAKSTRGEVLAVGNGRILENGEVKPLDVKVGDIVIFNDGYGVKSEKIDNEEVLIMSESDILAIVEA
As to B2, the “decrease in GroEL ATPase activity with a 2-fold molar excess of GroES, at 10 and 100 mM KCl, 1 mM ATP” value with GroEL from E. coli [15] is around 50%.
